Measurements published in EP2056867B1.

Tests used:
[1] = biological target: scavenger receptor CD36; assay: flow cytometry on CD36-transfected CHO cells, rAv17 at 2.5 µg/ml; detected with an anti-cystatin mAb and a FITC secondary antibody; baseline 20%
[2] = biological target: scavenger receptor CD36; assay: flow cytometry on CD36-transfected CHO cells, rAv17 at 5 µg/ml; detected with an anti-cystatin mAb and a FITC secondary antibody; baseline 20%

recombinant Acanthocheilonema viteae cystatin (rAv17)
fluorescence positive cells [1]: 71% | fluorescence positive cells [2]: 89%
